The nanobody polyreactivity screen of Harvey et al. (2022)

Assay: yeast display, Sf9 membrane polyspecificity reagent, FACS + sequencing; frameworks hold sequencing errors
Method in brief: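 Sorting gates, low and high (top ~1%), were placed on anti-HA fluorescence to track expression and on streptavidin fluorescence to track reagent binding. A clone's polyreactivity label is taken from the gate it came out of. The reagent was 10% biotinylated, detergent-solubilized Sf9 membrane, applied for 1 hour at 4 °C to galactose-induced yeast display cells.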

Row | Sequence | polyreactivity (PSR sort gate)
1 | QVQLVESGGGLVQAGGSLRLSCAASGFTFWPNAMGWYRQAPGKERELVAAINWSGGSTYYADSVKGRFTISRDNAKYTVSLQKNSLKPEDTAVYYCAADYVTNITFDGFNKYDYWGQGTQVTVSS | low polyreactivity
2 | QVQLVESGGGLVQAGGSLRLSCAASGFTFWRYAMGRYRQAPGKERELVAGISSGGSTNYADSVKGRFTISRDNAKNTVYLQMNSLKPEDTAVYYCAARGNYFYGIYGYWGQGTQVTVSS | low polyreactivity
3 | QVQLVESGGGLVQAGGSLRLSCAASGFTFWTYAMGWYRQAPGKERELVAAIDSGGSTYYADSVKGRFTISRDNAKNTVYLQMNSVKPEDTAVYYCNAGPSVTSGYDYDYWGQGTQVTVSS | low polyreactivity
4 | QVQLVESGGGLVQAGGSLRLSCAASGFTFWYNAMGWYRQAPGKERELVAAITSAGSTSYADSVKGRFTISRDNAKNTVYLQMNSLKPEDTAVYYCNADLASSFSRANKYDYWGQGTQVTVSS | low polyreactivity
5 | QVQLVESGGGLVQAGGSLRLSCAASGFTFWYYAMGWYRQAPGKEREMVAAISRSGTSTYYADSVKGRFTISRDNAKNTVYLQMNSLKPEDSAVYYCNVLRVKSITYLMDYWGQGTQVTVSS | high polyreactivity
6 | QVQLVESGGGLVQAGGSLRLSCAASGFTFYANAMGWYRQAPGKERELVAAISRGVSTTYADSVKGRFTISRDNAKNTVYLQMNRLKPEDTAVYYCAADGNVIAQGYDYWGQGTQVTVSS | low polyreactivity
7 | QVQLVESGGGLVQAGGSLRLSCAASGFTFYANAMGWYRQAPGKERELVAAITSSGGSTYYADSVKGRFTISRDNAKNTVYLQMNSLKPEDSAVYYCNSLRLYSIPRLYGYWGQGTQVTVSS | high polyreactivity
8 | QVQLVESGGGLVQAGGSLRLSCAASGFTFYAYAMGWYRPAPGKERELVAALTGRGGSTYYADSVKGRFTISRDNAKNTVYLQMNSLKPEDTAVYYCNKVKQSDKFNNFSNDYWGQGTQVTVSS | high polyreactivity
9 | QVQLVESGGGLVQAGGSLRLSCAASGFTFYAYAMGWYRQAPGKERELVAVITGGGSTYYADSVKGRFTISRDNAKNTVYLQMNSLKPEDTAVYYCAATYRGWLVGNGVWYWYYYWGQGTQVTVSS | high polyreactivity
10 | QVQLVESGGGLVQAGGSLRLSCAASGFTFYDYAMGWYRQAPGKERELVAAISWDGDRTYYADSVNGRFTISRDNAKNTVYLQMNSLKPEDTAVYYCNAEYSSFSDVQKDSDMDYWGQGTQVTVSS | low polyreactivity
11 | QVQLVESGGGLVQAGGSLRLSCAASGFTFYFYAMGWYRQAPGKERELVAAISRGGSTTYADSVKGRFTISRDNAKNTVYLQMNSLKPEDTAVYYCAKDRRRWYYTRDYWGQGTQVTVSS | low polyreactivity
12 | QVQLVESGGGLVQAGGSLRLSCAASGFTFYGNAMGWYRQAPGKERELVAAISLSDGYADSVKGRFTISRDNAKNTVYLLMNSLKPEDTAVYYCAKDRTDSKRREHDYWGQGTQVTVSS | low polyreactivity
13 | QVQLVESGGGLVQAGGSLRLSCAASGFTFYGYAMGWYRQAPGKDRELVARITVRGSTTYYADSVKGRFTISRDNAKNTVYLQMNSLKPEDTAFYYCNASWVYSRFRPLDYDLDYWGQGTQVTVSS | low polyreactivity
14 | QVQLVESGGGLVQAGGSLRLSCAASGFTFYGYAMGWYRQAPGKERELVAAITSGGSTNYADSVKGRFTISRDNAKNTVYLQMNSLKPEDTAVYYCAASPSYWYLYVNYSYDYWGQGTQVTVSS | high polyreactivity
15 | QVQLVESGGGLVQAGGSLRLSCAASGFTFYGYGMGWYRPAPGKERELVAVITSGGSTKYADSVKGRFTISRDNAKNTVYLQMNSLKPEDTAVYYCNVVGGRYLYSAYDYWGQGTQVTVSS | low polyreactivity
16 | QVQLVESGGGLVQAGGSLRLSCAASGFTFYIYAMGWYRPAPRNERELLAAITGSGGRTYYADSVKGRFTISRDYAKNTVYLQMNRLKPEETAVYYSNVLLQRVYGTEPSFDYWGQGTQVTVSS | high polyreactivity
17 | QVQLVESGGGLVQAGGSLRLSCAASGFTFYIYGMGWYRPAPGKERELVAAITWSGGRTYYADSVKGRFTISRDNAKNTVYLHMNSLKPEDTAVYYCAASYPGLSYHKYEYWGHGTQVTVSS | high polyreactivity
18 | QVQLVESGGGLVQAGGSLRLSCAASGFTFYKNTMGWYRQAPAKARELVAAISSSGSSTYYADSVKGRFTISRDYAKNTVYLQMNSLKPEDTAVYYCAAGRFAYHDDYWGQGTQVTVSS | high polyreactivity
19 | QVQLVESGGGLVQAGGSLRLSCAASGFTFYKNTMGWYRQAPGKERELVAAISGSGGRTYYADSVKGRFTISRDNAKNTVYLQMNSLKPEDTAVYYCNAAARYRWQYDYSLYEYGHWGQGTQVTVSS | high polyreactivity
20 | QVQLVESGGGLVQAGGSLRLSCAASGFTFYKYAMGWYRQAPGKEREFVAAISSSGDSTYYADSVKGRFTISRDNAKNTVYLQMNSLKPEDTAVYYCAARRRGTSTTWGQGTQVTVSS | high polyreactivity
21 | QVQLVESGGGLVQAGGSLRLSCAASGFTFYKYAMGWYRQAPGKERELVAGISSRGTRTYYADSVKGRFTISRDNAKNTVYLQMNSLKPEDTAVYDCAADSNTVNYDYWGQGTQVTVSS | high polyreactivity
22 | QVQLVESGGGLVQAGGSLRLSCAASGFTFYLYAMGWYRPAPGKERELVAAITYSAGSTYYADSVKGRFTISRDNEKNTVYLQMNSLKPEDTAVFSCAKRGHYRAWGGGGYWGQGTQVTVSS | low polyreactivity

Row | Sequence | polyreactivity (PSR sort gate)
23 | QVQLVESGGGLVQAGGSLRLSCAASGFTFYLYGMGGYRQAPGKERELVAAIRSGGSTNYADSVKGRFSISRDNAKNTVYLQMNSLKPEDTAVYYCATDIHSVHNNRDKPDYDYWGQGSQVTVSS | low polyreactivity
24 | QVQLVESGGGLVQAGGSLRLSCAASGFTFYLYTMGWYRQAPGKERQLVAAISGSGGSTYYADSVKGRFTISRDNAKITVYLQMNSLKPEDTAVYYCAASPVRVGKVIDRRDYWGQGTQVTVSS | high polyreactivity
25 | QVQLVESGGGLVQAGGSLRLSCAASGFTFYLYVMGWYRQAPGTEREFVAAITGSGTSTYYADSVKGRFTISRDNAKNTVYLQMNSLKPEDTAVYYCNAKRDRYFYTVKYDYWGQGTQVTVSS | low polyreactivity
26 | QVQLVESGGGLVQAGGSLRLSCAASGFTFYPNAMGWYRQAPGKERELVAAISRSGSSTYYADSVKGRFTISRDNAKNTVYLQMNSLKPEDTAVYYCNRYGRQYDFYYWGQGTQVTVSS | high polyreactivity
27 | QVQLVESGGGLVQAGGSLRLSCAASGFTFYPNTMGWYRQAPGKERELVAAISSSGGRTYYADSVKGRFTISRDNAKNTVYLQMNSLKPEDTAVYYCNAAKWLTSGGLDYWGLGTQVTVSS | high polyreactivity
28 | QVQLVESGGGLVQAGGSLRLSCAASGFTFYPYAMGWYRQAPGKERELVAAISNGDSTHYADSVKGRFTISRDNAKNTVYLQMNSLKPEDTAVYYCAAVRGYPSRITSYVYTYGYWGQGTQVTVSS | low polyreactivity
29 | QVQLVESGGGLVQAGGSLRLSCAASGFTFYPYAMGWYRQAPGTERELVAAIRGSGGSTHYADSVKGRFTISRDNAKNTVYLQMNSLKPEDTAVYYCAARIRGYRQYEYYYWGQGTQVTVSS | high polyreactivity
30 | QVQLVESGGGLVQAGGSLRLSCAASGFTFYRNAMGWYRHAPGTERELVAAISWSGDSTYYADSVKGRFTISRDNAKNTVYLQMNSLKPEDTAVYYCAKERYFYYPWVTTYTSNYWGQGTQVTVSS | low polyreactivity
31 | QVQLVESGGGLVQAGGSLRLSCAASGFTFYRNAMGWYRQAPGKERELVARIRGTGGRTYYADSVKGRFTISRDNAKNTVYLQMNSLKPEDTAVYYCNVGRGYSFANGDYWGQGTQVTVSS | high polyreactivity
32 | QVQLVESGGGLVQAGGSLRLSCAASGFTFYRNPMGWYRQAPGKERELVAAISARGVSTYYADSVKGRFTISRDNAKNTVYLQMNSLKPEDTAVYYFSAVNYIYTGGGTYYYWGQGTQVTVSS | high polyreactivity
33 | QVQLVESGGGLVQAGGSLRLSCAASGFTFYRYAMGWYRPAPGKERELVAAITRVGSTYYADSVKGRFTISRDNAKNTVYLQMNSLKPEDTAVYYCNARGTVPWYGYDYWGQGTQVTVSS | high polyreactivity
34 | QVQLVESGGGLVQAGGSLRLSCAASGFTFYRYAMGWYRQAPGKERELVAAINWSGVSTYYADSVKGRFTISRDNAKNTVYLQMNSLKPEDTAVYYCAADTYAGYNGNYWGQGTQVTVSS | high polyreactivity
35 | QVQLVESGGGLVQAGGSLRLSCAASGFTFYRYAMGWYRQAPGKERELVAAISSSGGTTYYADSVKGRFTISRDNAKNTVYLQMNSLKPEDTAVYYCAARGWPTWGWGYDYWGQGTQVTVSS | high polyreactivity
36 | QVQLVESGGGLVQAGGSLRLSCAASGFTFYRYAMGWYRQAPGKERELVAAISWRGTSTYYADSVKGRFTISRDNAKNTVYLQMNSLKPEDTAVYYCAAPRNFGPYTSPRQPLYNYWGQGTQVTVSS | high polyreactivity
37 | QVQLVESGGGLVQAGGSLRLSCAASGFTFYRYAMGWYRQAPGKERELVAAITNGGGTYYADSVKGRFTISRDNAKNTVYLQMNSLKPEDTAVYYCAAKSRLPTQGLGIYYWGQGTQVSVSS | high polyreactivity
38 | QVQLVESGGGLVQAGGSLRLSCAASGFTFYRYAMGWYRQAPGKERELVAAITRTGGSTYYADSVKGRFTISRDIAKNTVYLQMISLKPEDTAVYYCAARVHGTGTLKYPNYYWGQGTQVTVSS | high polyreactivity
39 | QVQLVESGGGLVQAGGSLRLSCAASGFTFYRYAMGWYRQAPGKERELVAAITSGGDTYYADSVKGRFTISRDNAKNTVYLQMNSLKPEDTAVYYCAAAPRYGYGLASDSIFDYWGQGTQVTVSS | high polyreactivity
40 | QVQLVESGGGLVQAGGSLRLSCAASGFTFYRYAMGWYRQAPGKERELVAAITWSGGSTYYADSVKGRFTISRDNAKNTVYFQMNSLKPEDTAVYYCAASRWIFQVNDYDYWGQGTQGTVSS | high polyreactivity
41 | QVQLVESGGGLVQAGGSLRLSCAASGFTFYRYAMGWYRQAPGKERELVAALSGSGGSTYYADSVKGPFTISRDNAKTTVYLQMNSLNPEDTAVYYCNTVWFYGAKYDYWGQGTQVTVSS | high polyreactivity
42 | QVQLVESGGGLVQAGGSLRLSCAASGFTFYRYAMGWYRQAPGKERELVARISWSGGSTYYADSVKGRFTISRDNAKNTVYLQMNSLKPEDTAVYYCNARRLFESWKYDYWGQGTQVTVSS | high polyreactivity
43 | QVQLVESGGGLVQAGGSLRLSCAASGFTFYRYGMGWYRQAPGKERELVAAINNDGTTNYADSVKGRFTISRDNAKNTVYLQMNSLKPEDTAVYYCAADYYRGRYSSRYDYWGQGTQVTVSS | low polyreactivity
